Measured values taken from article PMC10514306, “The CBL1/9-CIPK1 calcium sensor negatively regulates drought stress by phosphorylating the PYLs ABA receptor” (Nature Communications, 2023).
Each block holds one binder with its values, some of them ahead of it.

Target: T1, CIPK1-His (Arabidopsis, UniProt Q8RWC9 1-444)
T1 construct: source: E. coli BL21 (Rosetta), purified; not shown: 6xHis, C-terminal, kept
T1 sequence (looked up): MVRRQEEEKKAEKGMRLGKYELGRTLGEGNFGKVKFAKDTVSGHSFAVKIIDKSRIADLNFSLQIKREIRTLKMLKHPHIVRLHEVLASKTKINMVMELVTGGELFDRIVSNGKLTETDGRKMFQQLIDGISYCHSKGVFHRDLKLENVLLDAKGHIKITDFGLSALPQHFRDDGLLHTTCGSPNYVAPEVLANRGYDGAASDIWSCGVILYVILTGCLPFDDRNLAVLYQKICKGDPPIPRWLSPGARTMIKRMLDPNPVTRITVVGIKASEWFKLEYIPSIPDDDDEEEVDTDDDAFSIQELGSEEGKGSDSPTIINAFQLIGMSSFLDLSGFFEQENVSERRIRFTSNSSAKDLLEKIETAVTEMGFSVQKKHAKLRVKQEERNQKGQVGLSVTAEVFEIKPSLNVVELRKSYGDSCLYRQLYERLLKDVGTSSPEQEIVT
Assay: pull-down; 5 ug GST-PYR1/PYLs on GST resin at 4 C for 2 h, then 2 ug CIPK1-His for 2 h in pull-down buffer; 6 washes; blots with anti-His and anti-GST
Conditions: both partners purified

- binding result: binds
B1: GST-PYL6 (receptor, Arabidopsis, UniProt Q8S8E3 1-215, looked up)
chain: MPTSIQFQRSSTAAEAANATVRNYPHHHQKQVQKVSLTRGMADVPEHVELSHTHVVGPSQCFSVVVQDVEAPVSTVWSILSRFEHPQAYKHFVKSCHVVIGDGREVGSVREVRVVSGLPAAFSLERLEIMDDDRHVISFSVVGGDHRLMNYKSVTTVHESEEDSDGKKRTRVVESYVVDVPAGNDKEETCSFADTIVRCNLQSLAKLAENTSKFS
notes: PYL6, ABA receptor, Arabidopsis; source: recombinant protein, purified; not shown: GST, N-terminal, kept

- binding result: binds
B2: GST-PYL5 (receptor, Arabidopsis, UniProt Q9FLB1 1-203, looked up)
chain: MRSPVQLQHGSDATNGFHTLQPHDQTDGPIKRVCLTRGMHVPEHVAMHHTHDVGPDQCCSSVVQMIHAPPESVWALVRRFDNPKVYKNFIRQCRIVQGDGLHVGDLREVMVVSGLPAVSSTERLEILDEERHVISFSVVGGDHRLKNYRSVTTLHASDDEGTVVVESYIVDVPPGNTEEETLSFVDTIVRCNLQSLARSTNRQ
notes: PYL5, ABA receptor, Arabidopsis; source: recombinant protein, purified; not shown: GST, N-terminal, kept

- binding result: binds
B3: GST-PYL1 (receptor, Arabidopsis, UniProt Q8VZS8 1-221, looked up)
chain: MANSESSSSPVNEEENSQRISTLHHQTMPSDLTQDEFTQLSQSIAEFHTYQLGNGRCSSLLAQRIHAPPETVWSVVRRFDRPQIYKHFIKSCNVSEDFEMRVGCTRDVNVISGLPANTSRERLDLLDDDRRVTGFSITGGEHRLRNYKSVTTVHRFEKEEEEERIWTVVLESYVVDVPEGNSEEDTRLFADTVIRLNLQKLASITEAMNRNNNNNNSSQVR
notes: PYL1, ABA receptor, Arabidopsis; source: recombinant protein, purified; not shown: GST, N-terminal, kept

- binding result: binds
B4: GST-PYL4 (receptor, Arabidopsis, UniProt O80920 1-207, looked up)
chain: MLAVHRPSSAVSDGDSVQIPMMIASFQKRFPSLSRDSTAARFHTHEVGPNQCCSAVIQEISAPISTVWSVVRRFDNPQAYKHFLKSCSVIGGDGDNVGSLRQVHVVSGLPAASSTERLDILDDERHVISFSVVGGDHRLSNYRSVTTLHPSPISGTVVVESYVVDVPPGNTKEETCDFVDVIVRCNLQSLAKIAENTAAESKKKMSL
notes: PYL4, ABA receptor, Arabidopsis; source: recombinant protein, purified; not shown: GST, N-terminal, kept

- binding result: binds
B5: GST-PYR1 (receptor, Arabidopsis, UniProt O49686 1-191, looked up)
chain: MPSELTPEERSELKNSIAEFHTYQLDPGSCSSLHAQRIHAPPELVWSIVRRFDKPQTYKHFIKSCSVEQNFEMRVGCTRDVIVISGLPANTSTERLDILDDERRVTGFSIIGGEHRLTNYKSVTTVHRFEKENRIWTVVLESYVVDMPEGNSEDDTRMFADTVVKLNLQKLATVAEAMARNSGDGSGSQVT
notes: PYR1, ABA receptor, Arabidopsis; source: recombinant protein, purified; not shown: GST, N-terminal, kept

- binding result: binds
B6: GST-PYL3 (receptor, Arabidopsis, UniProt Q9SSM7 1-209, looked up)
chain: MNLAPIHDPSSSSTTTTSSSTPYGLTKDEFSTLDSIIRTHHTFPRSPNTCTSLIAHRVDAPAHAIWRFVRDFANPNKYKHFIKSCTIRVNGNGIKEIKVGTIREVSVVSGLPASTSVEILEVLDEEKRILSFRVLGGEHRLNNYRSVTSVNEFVVLEKDKKKRVYSVVLESYIVDIPQGNTEEDTRMFVDTVVKSNLQNLAVISTASPT
notes: PYL3, ABA receptor, Arabidopsis; source: recombinant protein, purified; not shown: GST, N-terminal, kept

- binding result: binds
B7: GST-PYL2 (receptor, Arabidopsis, UniProt O80992 1-190, looked up)
chain: MSSSPAVKGLTDEEQKTLEPVIKTYHQFEPDPTTCTSLITQRIHAPASVVWPLIRRFDNPERYKHFVKRCRLISGDGDVGSVREVTVISGLPASTSTERLEFVDDDHRVLSFRVVGGEHRLKNYKSVTSVNEFLNQDSGKVYTVVLESYTVDIPEGNTEEDTKMFVDTVVKLNLQKLGVAATSAPMHDDE
notes: PYL2, ABA receptor, Arabidopsis; source: recombinant protein, purified; not shown: GST, N-terminal, kept
